In assay [1] the target is porcine gastric mucin coupled to magnetic beads (mucin from porcine stomach, type III, Sigma) (porcine). Briefly: PGM-MB pull-down, qRT-PCR; untreated control in the initial pressure trials. In general terms: Quantitative PCR measures a nucleic acid by following its amplification.
Assay [2] has the same target. Briefly: PGM-MB pull-down, qRT-PCR; untreated virus (0 seconds) in the thermal series.
Assay [3] shares this target. Put plainly: PGM-MB pull-down, qRT-PCR; untreated virus in the 300-600 MPa series.
The target is the same in assay [4]. Briefly: PGM-MB pull-down, qRT-PCR; 0 J/cm^2; printed as 'bound' but the context (84% bound) shows it is the unbound fraction.
For assay [5] the target is unchanged. Put plainly: PGM-MB pull-down, qRT-PCR; 0 J/cm^2 in the UV series.
Assay [6] shares this target. Briefly: PGM-MB pull-down, qRT-PCR; after 0.5 J/cm^2 UV.
The target is the same in assay [7]. Put plainly: PGM-MB pull-down, qRT-PCR; after 1 J/cm^2 UV.
The target is the same in assay [8]. Put plainly: PGM-MB pull-down, qRT-PCR; after 0.25 J/cm^2 UV.
For assay [9] the target is unchanged. Briefly: PGM-MB pull-down, qRT-PCR of the bound fraction; after 500 and 600 MPa, 5 minutes, 5 C.
Assay [10] shares this target. Briefly: PGM-MB pull-down, qRT-PCR; after 600 MPa, 5 minutes, 5 C.
Assay [11] has the same target. Put plainly: PGM-MB pull-down, qRT-PCR; after about 60 seconds in the heat block, about 64 C.

As for “GI.1 Norwalk strain norovirus (untreated virions from stool stock, patient No. 505A-05) (from UniProt Q83884 1-530)”, the percent bound is 71% in assay [1], 68% in assay [2], 82% in assay [3] and 84% in assay [5]. Besides, the results for the percent unbound in [2] and in assay [4] were 32% and 16%, respectively.

With “GI.1 norovirus after UV treatment (254 nm, up to 2 J/cm^2) (from UniProt Q83884 1-530)”, the percent bound came to 33% in assay [6] and 4% in assay [7]. Also, the percent unbound was 67% in assay [6] and 40% in [8].

The substance “GI.1 norovirus after high pressure treatment (300-600 MPa, 5 minutes, 5 C) (from UniProt Q83884 1-530)” returned a log10 reduction of qRT-PCR detectable norovirus RNA after binding to PGM-MBs in assay [9] above 4.7. The substance also showed a percent bound in assay [10] of 0.3%.

For “GI.1 norovirus after thermal treatment (80 C heat block, 0-600 seconds) (from UniProt Q83884 1-530)”, in [11], the percent bound was found to be 6%.

In [1], “GII.4 norovirus (untreated virions, stock provided by the CDC)” showed a percent bound of 69%.

Take “GII.4 norovirus after high pressure treatment (600 MPa, 5 minutes, 5 C)”: the percent bound in assay [10] was 4%.

For the origin of these results see patent US8993229.
